The data set can be described thus: label from the status in PepcDB records.
Regarding “TDDEEKDNNGQGSVSVETNYLPIADPYVMFYNNKYYAYGTGGTTAGEGFACFSSDDLKNWKREGQALSATDSYGTWGFWAPEVYYVESKKKFYLFYSAEEHICVATSTTPEGPFRQEVKQPIWSEKSIDTSLFIDDDGTPYLYFVRFTDGNVIWVAQMTDDLMSIKTETLNQCIKAEVSWELLQGKVAEGPSLLKKNGVYYLIYSANHYENKGYGVGYATSDTPMGPWVKYSKNPLLQGDAATGLVGTGHGAPFQCKDGSWKYIFHAHWSAAEIQPRTSYIKDFAISDQGVVTISGTVIKPRVLK”, the protein production result is recorded as “not failed”.

For “THSVETPYGSVTFTVYGTPKPKRPAIFTYHDVGLNYKSCFQPLFRFGDMQEIIQNFVRVHVDAPGMEEGAPVFPLGYQYPSLDQLADMIPCILQYLNFSTIIGVGVGAGAYILSRYALNHPDTVEGLVLINIDPNAKGWMDWAAHKLTGLTSSIPDMILGHLFSQEELSGNSELIQKYRGIIQHAPNLENIELYWNSYNNRRDLNFERGGETTLKCPVMLVVGDQAPHEDAVVECNSKLDPTQTSFLKMADSGGQPQLTQPGKLTEAFKYFLQG”, the protein production entry is given as “not failed”.

With “TIATSGKLNWGIRESFNNYTNGASKVEDGATLISTNNFEFKLEKATYDAAKERTEAQFRGKIVYLKYCDDMKTFTNCQLDLTIKDPKIVISNEENYVEAVVDSKQYPSGEWYKSNGPVKIANLYPGSATVDSKDNSTEWTNVVSALANPGGVKMFSEFYGENEGLAPLSFSYDG”, the protein production result is “failed”.

As to “TIDIDLQKEVEALLDKQIKKLRSQGAKDMDNAMMVVQNPKNGDILALAGKQINKSGKMTDYDIGTFTSQFAVGSSVKGGTLLAGYQNKAIKVGETMVDEPLHFQGGLTKRSYFNKNGHVSINDKQALMHSSNVYMFKTALKLAGDPYYSGMALPSDISSPAQKLRRGLNQVGLGVKTGIDLPNETRGQIEPLTNNPGNYLDLSIGQYDTYTPLQLSQYVSTIANDGYRIQPHIGLTIHESTNKDEVGPLKKKINGTVLNKVNNTEKEIKQIQEGFKMAFNDKDGTGYVSFKDTVVPTAGKTGTAEVFQNGEPRVNSTYIGYAPIDDPKLAFSIVYTNQPVPPPWLTGGDLGRDVINYYFKQLGKDDK”, the protein production entry is listed as “failed”.

“TIDSNFQNKVDEILQRNYSQIVKTIGPYSENAYVVAMNPQTGAILAMSGFHHDLATGEVTPNPLAPILNSEVPGSVVKAGTLTAGYETGVIKGNDVLTDEAILLAGSNPKASWWNASGGTTMQLTAEQALEYSSNAYMMKLVFKMMGVNYYPNMIFPYEVGDDTVFKELRKAFAEYGMGTKTGIDIPGETTGIQNKDFKDSSSAPQGGNLLDLSFGQYDTYSALQLAQYVSTVANNGIRVQPHVVEGIYGNDENGALGKILKEIEPKVLNKVNISEDQIGILQQGFYNVVNGTSPFTTARGLKSDKFSIAAKTGTAETQATDANGVNHTTVNSNLVAYAPYENPEIAISVVLPHLNDEASKPNQTIAKEVLEAYMEMYKK”: the protein production entry was “failed”.

Regarding “TLLLIFSFFVVTIGGLVQIVPLFYLENTIEKVEGVRPYTPLELAGRDIYIREGCYVCHSQMIRPMRDETERYGHYSLAAESMYDHPFQWGSKRTGPDLARVGERYSDEWHVDHLTNPQSVVPESIMPKYGFLSHTVIDGRYIRDLMSVHRIVGVPYSDEMLENAVADFKAQANPDADTDGLLERYGKAAVRNFDGQAELTEMDALISYLQVLGT”, the protein production result is reported as “failed”.

For “TMNNEMSDPQIEEFYTIVKELEKFDTFTNFLDVHQPELAIVFGRTKRRVDELTSALISKGYKAEGLHGDITQAKRLEVLKKFKNDQINILVATDVAARGLDISGVSHVYNFDIPQDTESYTHRIGRTGRAGKEGIAVTFVNPIEMDYIRQIEDANGRKMSALRPPHRKEVLQAREDDIKEKVENWMSKESESRLKRISTELLNEYNDVDLVAALLQELVEANDEVEVQLTFEKPLSRKGRNGKPSGSR”, the protein production entry was “failed”.

Turning to “TNLAALSLDSLVAPDTPIQFDIISPVCEDQPGQAKAFGQGGRRTNPFGESGGSTKSETEDSILHQLFIVRFLGSMEVKSDDHPDVVYETMRQILAARAIHNIFRMTESHLLVTCDCLKLIDPQTQVTRLTFPLPCVVLYATHQENKRLFGFVLRTSSGRSESNLSSVCYIFESNNEGEKICDSVGLAKQIAL”, the protein production entry is reported as “failed”.

On to “TNWASGEDDHVVARAEYDFVAVSDEEISFRAGDMLNLALKEQQPKVRGWLLASLDGQTTGLIPANYVKILGKRRGRKTIE”, for which the protein production result was “not failed”.

“TPAVVERADADSQYEILVGGQRAGLTAYRDLGAQRVFFHTEIDEAFAGQGLASQLVQQALVDVRASGMRIVPVCPYVAKFLKRHDEFADITDPVTPEVLRW”: the protein production entry is recorded as “not failed”.

Turning to “TRKVLVLDLDNTLWGGVIGDDGIEGIVIGEGSARGEAFKAFQLYCRALRERGILLAVSSKNDPERALAAFDHPEMVLRRSDFAAFVANWEDKGQGLQRIAQELNLGLEALVFFDDNPAERALLREQFPAVAVPEVPEEPETYIRCLAAAGLFEAV”, the protein production result is “failed”.

For the sequence “TTQNELLNRIAELETKVAFQDNVIEELNQVLIHHQFVLDKLQTQVRHFANKFKNIQSSNVASQAEETPPPHY”, the protein production result was “failed”.

Turning to “TTSDNTALFYRHWPTLLPGAKKVIVLFHRGHEHSGRLQHIVDELAMPDTAFYAWDARGHGQTSGPRGYSPSLARSVQDVDEFVRFAASDSQVGLEEVVVIAQSVGAVMVATWVHDYAPAIRGLVLASPAFKVKLYVPLARPGLALWHRLRGLFFINSYVKGRYLTHDRQRVASFNNDPLITRAIAVNILLDLYKTSERIVSDAAAITLPTQLLISGDDYVVHRQPQIDFYQRLRSPLKELHLLPGFYHDTLGEENRAQAFEKMQSFISRLYA”, the protein production entry is reported as “failed”.

On to “TVAVSQIVEHPALDATRQGLLDGLKAKGYEEGKNLEFDYKTAQGNPAIAVQIARQYVGESPDVLVGIATPSAQALVSATRTIPVVFTAVTDPVGAKLVKSMKQPGKNVTGLSDLSPVAQHVELIQEILPQVKSIGVVFNPGEANAVTLVNLLKESAEAKGIKVVEATALKSADVQSATQAIAAKSDILYAPTDNTVASAIEGMIVAANQAKKPVFGGATSYVEKGAIAGLGFDYYQVGVQTADYVAAILDGQEPGKLDVKVATGSDLVINESAASKLGIQLPSSVVQRATSMQ”, for which the protein production entry is “not failed”.

With “TVDRSVAIVGTRAMSHYGKSATSMLAAGIADHHWTIVSGGALGVDTVAHTEALQRQKPTVAVCARGLDAPYPRKNAELLRSIVETGCLVSEYAPGLTPHRHRFLTRNRLVAALSQGTVVVEAAWRSGALNTLSWASALGRVAMAVPGPVTNTGSLGCHERIRNKEAELVCSAEEILALVGTLGEFDPN”, the protein production entry is given as “failed”.

On to “TVDWASMKWARPYLNTNSLGANPKQPGDVAKVGDLVRLLRQDDGSLKFSQIPVAQSALVSLDPQNGAIRALVGGFAFEQSNYNRAMQAKRQPGSSFKPFIYSAALDNGYTASSLVNDAPIVFVDEYLDKVWRPKNDTNTFLGPIRLREALYKSRNLVSIRLLQALGVDSTIDYITRFGFAKQDLPRNLSLALGTATLTPMEIATGWATFANGGYKVSPYLIQTIENRDGQTLFVANPPSVPVNDVNTAPNTSTFAVHDSPSVVASPPGSPAQPQAPAVAERIVDGRTTYILNSMLQDVIKRGTGRRALSMNRPDIAGKTGTTNDSKDAWFSGYNADYVTTVWSGFDQPESLGRHEFGGTVSLPIWMDYMSAALKDKPPHQQ”, for which the protein production result is given as “failed”.

Turning to “TVEEVIEETPEKSELELANERADEFENKYLRAHAEMQNIQRRSSEERQQLQRYRSQDLAKAILPSLDNLERALAVEGLTDDVKKGLEMTRDSLIQALKEEG”, the protein production entry was “not failed”.

As for “TVHKQDGKVLEIELSSLKEALSFVSLIDGYYRLTADAHHYLCKEVAPPAVLENIHSNCHGPISMDFAISKLKKAGNQTGLYVLRCSPKDFNKYFLTFAVERENVIEYKHCLITKNENGEYNLSGTKRNFSNLKDLLNCYQMETVRSDSIIFQFTKCCPPKPKDKSNLLVFRTNGISDVQISPTLQRHNNVNQMVFHKIRNEDLIFNESLGQGTFTKIFKGVRREVGDYGQLHKTEVLLKVLDKAHRNYSESFFEAASMMSQLSHKHLVLNYGVCVCGEENILVQEFVKFGSLDTYLKKNKNSINILWKLGVAKQLAWAMHFLEEKSLIHGNVCAKNILLIREEDRRTGNPPFIKLSDPGISITVLPKDILQERIPWVPPECIENPKNLNLATDKWSFGTTLWEICSGGDKPLSALDSQRKLQFYEDKHQLPAPKWTELANLINNCMDYEPDFRPAFRAVIRDLNSLFTPDYELLTENDMLPNMRIGALGFSGAFEDRDPTQFEERHLKFLQQLGKGNFGSVEMCRYDPLQDNTGEVVAVKKLQHSTEEHLRDFEREIEILKSLQHDNIVKYKGVCYSAGRRNLRLIMEYLPYGSLRDYLQKHKERIDHKKLLQYTSQICKGMEYLGTKRYIHRDLATRNILVENENRVKIGDFGLTKVLPQDKEYYKVKEPGESPIFWYAPESLTESKFSVASDVWSFGVVLYELFTYIEKSKSPPVEFMRMIGNDKQGQMIVFHLIELLKSNGRLPRPEGCPDEIYVIMTECWNNNVSQRPSFRDLSLRVDQIRDSIAA”, the protein production result was “failed”.

Turning to “TYIDGSIKRKHLVQNNQPVTLYWLRFQKSIVDTNKQDLQQSLQINTGQEPKTQALAQQILKQSDADPARYVKNILDWYRQQDFIYTLSPEQLNGNRTDQFLFQTRNGFCEHYASSFVLLMRYAGIPARVVIGYQGGQLAPDAQSLEVRQLDAHAWAEVLIDDSWHRIDPTAAIAPARLEHGMQYYLQEDRRIWGSEQHLFWKQQNFHLIQSFRVWSDYLQYQWQSKVIGYNVDQQKSFFSKLGIRSVYSAIVIMLLSICGLVIVYGIYVAYKRRGQSSFIEYQISRFQRKMSPSMKKQKSETFKVW”, the protein production result was “failed”.

In the case of “VAEVPEEHKSKDGNTTVGYVIFFYTYSTWKGRTVYMEDLYVMPEFRGNGIGKALLGAVAKEAKDQLCSRLQFSVLDWNKPSLDFYMAKGAEDLTAKEGWHFLRFHGMALDNLAQEAP”, the protein production entry was “failed”.

Take “VARCQVPDCEADISELKGYHKRHRVCLRCATASFVVLDGENKRYCQQCGKFHLLPDFDEGKRSCRRKLERHNNRRKRKPVDKGGVA”: the protein production entry is “not failed”.

Consider “VDEPESMVNLAFVKNDSYEKGPDSVVVHVYVKEICRDTSRVLFREQDFTLIFQTRDGNFLRLHPGCGPHTTFRWQVKLRNLIEPEQCTFCFTASRIDICLRKRQSQRWGGLEAPAARVGGA”, for which the protein production entry is “not failed”.

Turning to “VDMDVTTAKLVVGFRGYLTLTQHSLLTYRIALKLFLSMLIGWTSKIYHTLYEDGKIDDSFDVDVEIHHNFQFVLISLDTPEPIAMSNYIRQKLATIKISKEFTNEHLNLLKKEMYGDFIQSLDSIEHLTHQFSLYLSDSDKETYFDIPKIIERLTLKDVVTIGKAFFEKADASDFTVFPK”, the protein production result was “failed”.

On to “VDMLLVGAGIMSATLAVLLKELDPNLKMEVVELQESGAIESSNPWNNAGTGHAGLCELNYTPQSADGSIDIKKAVGINTMFEVSKQFWSHLVAKGTFGSPKTFINPVPHLSFVRGSEGIAYLKKRFESLTKHHAFETMVYSEDKATLAEWMPLMMPGRPADEAIAATRVEGGTDVNFGALTNQLLQHLAQQPGAQIRYNQKVTHLRRADNGWRVTVKDTRNGGDREIQARFVFLGAGGGALPLLQLSGIPEGKGFGGFPVSGQWLRCDNPEIVKQHQAKVYSQAEVGSPPMSVPHLDTRVVDGKKSLLFGPYAGFSTKFLRHGSFLDLPLSVRPGNILPMLSVARDNMDLTRYLIGQVMQSPEQRLEALRKFYPEARAEDWRLEVAGQRVQIIKKDPKKGGILQFGTELVAAHDGSIAALLGASPGASVTVSIMLGLIERCFPEQARSPEWSAKLKEIFPAREKELESDAELYRSVSSRCSEVLELTAKNDVQAPVNAE”, for which the protein production entry is recorded as “failed”.

These data come from a protein production outcome set (Wang et al. 2014).
